For one data set, the system named is 786-O (human RCC) cells. The experiment in a line: In vitro cytotoxicity, MTT assay, in absence or presence of neutrophil elastase. In kind it is cell-based. As to conditions: 72 h exposure. The method, then: (§1) 786-O (human RCC), HT-29 (human CRC), NCI-H292 (human NSCLC), NCI-H69 (human SCLC), MX-1 (human TNBC), and SUM149PT (human IBC) cells were acquired from ATCC and cultured according to the provider’s instructions.
(§2) The in vitro cytotoxicity of the SMDCs in comparison to the respective payloads was tested in a panel of cancer cell lines after a 72 h continuous exposure in presence or absence of 20 nM neutrophil elastase using MTT assays (ATCC). IC50 values were determined as the concentration of compound required for 50% inhibition of cell viability.
For orientation: Tetrazolium dyes change colour on reduction, which living cells bring about.

A further data set deals with HT-29 (human CRC) cells. Described as above. The settings on record: 72 h exposure. In kind it is cell-based. On the procedure:
as §1, §2

Data set [1] deals with NCI-H292 (human NSCLC) cells. Described as above. It is filed as cell-based. As to conditions: 72 h exposure. The method, then: as §1, §2
Data set [2] deals with SUM149PT (human IBC) cells. The description is as above. As to conditions: 72 h exposure. It is filed as cell-based. On the procedure:
as §1, §2

Data set [3] in a line: Hydrolytic stability in PBS buffer at pH 7.4. It is filed as physicochemical. As to conditions: PBS pH 7.4, 37 °C, 24 h. On the procedure:
For hydrolytic stability measurement, compounds 2, 3, 4, 5 and 6 (0.15 mg) were dissolved in acetonitrile/DMSO (4:1, 0.5 mL) and 1 mL of PBS buffer at pH 7.4 was then added. The sample solution was analyzed by HPLC to determine the amount of the test compound and the formation of degradation products over a period of 24 h at 37 °C.

The nature of a further data set: Stability in rat plasma. As to conditions: 37 °C. In kind it is in vitro ADME. On the procedure: The SMDC compounds 2, 3, 4, 5 and 6 (1 mg) were dissolved in acetonitrile/DMSO (1:1, 0.5 mL). While vortexing, 20 µL of this solution was added to 1 mL rat plasma at 37 °C. The incubation was stopped at respective time intervals by adding acetonitrile/buffer pH 3 (80:20) and the test compounds and formation of degradation products were analyzed by LC and LC/MS.

The nature of data set [4]: Stability in human plasma. In kind it is in vitro ADME. The settings on record: 37 °C.
Data set [5] can be described thus: Intravenous pharmacokinetics in rat. In kind it is in vivo. The settings on record: male Wistar rats, 0.5 mg/kg SMDC i.v., plasma; for AUC(0-inf) / half-life / clearance / Vd: rat, iv; for clearance: read-out: CLp; for Vd: read-out: Vss. The method, then: Pharmacokinetic properties of SMDCs and their respective payloads were characterized in rats. Briefly, male Wistar rats (n = 3) were given a 0.5 mg/kg dose of SMDC formulated in plasma/DMSO (99:1) intravenously (i.v.) via tail vein. Blood was collected at pre-dose, 2, 5, 15, 30, 45, 60 min, 2, 4, 7, 24 h post-dose and then processed to plasma. Plasma was frozen at < −20°C until sample analysis. Plasma samples were analyzed for concentrations of SMDCs and their respective released payloads by LC-MS/MS.
Pharmacokinetics of SMDCs and their respective payloads from in vivo studies were determined using mean concentration-time profiles. All pharmacokinetic parameters were calculated by non-compartmental methods as previously described ([Perrier and Gibaldi, 1982]).

A further data set has as its system NCI H69 SCLC xenograft. In words: In vivo efficacy in NCI H69 SCLC xenograft model. Details: species or system mice. The settings on record: NCI H69 model, QWx2 (4: 5 mg/kg; 6: 40 mg/kg). The method, then: For the NCI H69 study, immunocompromised mice were inoculated subcutaneously with 1.3 × 10^6 NCI H69 cells in 50% Matrigel/50% Media on day 0. Treatment was started at a mean tumor area in the range of […] in the NCI H69 model (n = 8/group, compound 4 at 5 mg/kg i. v., QW, and compound 6 at 40 mg/kg i. v., QW). In an independent experiment in the same CDX xenograft model compound 3 was tested at 10 mg/kg i. v., QW.

Setting [6] is: with 20 nM neutrophil elastase, read-out: IC50 786–0 + neutrophil elastase.
The mark [7] stands for this setting: with 20 nM neutrophil elastase, read-out: IC50 HT29 + neutrophil elastase.
Where [8] appears, read: with 20 nM neutrophil elastase, read-out: IC50 NCI-H292 + neutrophil elastase.
Where [9] appears, read: with 20 nM neutrophil elastase, read-out: IC50 SUM149 PT + neutrophil elastase.

“Also recorded” adds a separate entry of the source. Read-outs that look alike come from different tables or passages of the source.

Broadly, the IC50 is the midpoint of a concentration-inhibition curve. The AUC(0-inf) is the area under the concentration-time curve extrapolated to infinity. Low values mean low exposure, high ones high exposure. For orientation: half-life means how long it takes for the measured level to halve. For `CCCNC(=O)Nc1cccc(S(=O)(=O)Nc2cccc([C@@H](CC(=O)O)NC(=O)Nc3ccc(NC(=O)NCCOCCOCCOCCC(=O)N[C@@H](CC(=O)O)C(=O)N4CCC[C@H]4C(=O)N[C@H](C(=O)O[C@@H](c4ccccc4)[C@@H](C)NC(=O)[C@H](C)[C@@H](OC)[C@@H]4CCCN4C(=O)C[C@@H](OC)[C@H]([C@@H](C)CC)N(C)C(=O)[C@@H](NC(=O)[C@@H](NC)C(C)C)C(C)C)C(C)C)cc3)c2)c1` [Compound 4], the IC50 in the data set with 786-O (human RCC) cells (setting [6]) was found to be 6.6 nM; in the data set with 786-O (human RCC) cells (without neutrophil elastase, read-out: IC50 786–0) it was 660 nM; with HT-29 (human CRC) cells (setting [7]), 0.43 nM; in the data set on HT-29 (human CRC) cells (without neutrophil elastase, read-out: IC50 HT29), 78 nM; in data set [1] (setting [8]), 0.35 nM; in data set [1] (without neutrophil elastase, read-out: IC50 NCI-H292), 71 nM. Moreover, the half-inhibitory concentration (IC50) in data set [2] (setting [9]) turned out to be 0.51 nM; in data set [2] (without neutrophil elastase, read-out: IC50 SUM149PT), 50 nM. Moreover, the “Stability in buffer pH 7.4” value in data set [3] is recorded as “highly stable”. The “Stability in rat plasma” value in the data set “Stability in rat plasma” is reported as “highly stable”. In [4], the “Stability in human plasma” value was “highly stable”. In data set [5], this molecule had an area under the curve AUC(0-inf) of 3.03 ± 0.11 µM·h. This molecule had a half-life in data set [5] of 138 ± 57 min. In addition, the clearance in [5] turned out to be 1.47 ± 0.06 mL/min/kg. In addition, the Vd in data set [5] was found to be 0.157 ± 0.015 L/kg. In addition, the Body weight changes entry with NCI H69 SCLC xenograft is recorded as “very minor”.

With `CCCNC(=O)Nc1cccc(S(=O)(=O)Nc2cccc([C@@H](CC(=O)O)NC(=O)Nc3ccc(NC(=O)NCCOCCOCCOCCC(=O)N[C@@H](CC(=O)O)C(=O)N4CCC[C@H]4C(=O)N[C@H](C(=O)N[C@@H](CCN(C(=O)CO)[C@@H](c4cc(-c5cc(F)ccc5F)cn4Cc4ccccc4)C(C)(C)C)C(=O)NC)C(C)C)cc3)c2)c1` [Compound 6], the IC50 in the data set with 786-O (human RCC) cells (setting [6]) worked out at 8.7 nM. Also, in the data set on HT-29 (human CRC) cells (setting [7]), the IC50 came out at 1.7 nM. In data set [1] (setting [8]), the 50% inhibitory concentration (IC50) was 1.3 nM. For the same molecule, the IC50 in data set [2] (setting [9]) amounted to 0.6 nM. Moreover, the “Stability in buffer pH 7.4” value in data set [3] is on record as “Very small fractions of a degradation product; also recorded: highly stable”. Further, the “Stability in rat plasma” value in “Stability in rat plasma” is on record as “highly stable”. In addition, the “Stability in human plasma” value in data set [4] is on record as “highly stable”. In [5], the Vss result is “comparable to plasma volume”, the AUC(0-inf) came out at 2.98 ± 0.25 µM·h, the half-life was 26.5 ± 1.38 min and the clearance turned out to be 1.69 ± 0.15 mL/min/kg. In addition, the Vd in data set [5] was 0.0377 ± 0.005 L/kg. Further, the Body weight changes entry in the data set with NCI H69 SCLC xenograft is “very minor”.

The values are drawn from article PMC10943695, “Neutrophil elastase as a versatile cleavage enzyme for activation of αvβ3 integrin-targeted small molecule drug conjugates with different payload classes in the tumor microenvironment” (Frontiers in Pharmacology, 2024).
